Experimental data reported in patent US20210198366A1.
Substitutions are numbered along the chain they refer to.

T1: cynomolgus monkey B7-H7 (soluble analyte in SPR) (cynomolgus monkey)
T1 sequence: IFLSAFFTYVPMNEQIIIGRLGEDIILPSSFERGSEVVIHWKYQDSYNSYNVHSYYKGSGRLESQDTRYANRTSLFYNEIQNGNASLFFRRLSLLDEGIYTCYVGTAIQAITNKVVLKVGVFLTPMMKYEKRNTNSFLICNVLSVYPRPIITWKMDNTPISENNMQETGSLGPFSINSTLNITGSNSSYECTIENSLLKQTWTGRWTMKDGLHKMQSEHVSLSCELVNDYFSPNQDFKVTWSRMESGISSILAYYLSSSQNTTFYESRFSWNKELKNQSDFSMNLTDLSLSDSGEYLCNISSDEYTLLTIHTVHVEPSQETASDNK

B1: humanized anti-B7-H7 antibody Hz2D7 (antibody, human IgG1, kappa, V domains shown)
VH: QVQLVQSGAEVKKPGASVKVSCKTSGYTFTEYTMHWVRQAPGQGLEWMGGINPNNYGAPYNQKFKGRVTMTVDTSISTAYMELSRLRSDDTAVYYCASGGYYFDYWGQGTLVTVSS
VL: DIQMTQSPSSLSASVGDRVTITCKASQDVGTAVAWYQQKPGKAPKLLIYWAFTRHTGVPSRFSGSGSGTDYTLTISSLQPEDFATYYCQQHYDTPFTFGQGTKVEIKR
B2: anti-B7-H7 antibody 2D7 (antibody, V domains shown)
VH: EVQLQQSGPELVKPGASVKISCKTSGYTFTEYTMHWVKQSHGKSLEWIGGINPNNYGAPYNQKFKGKATLTVDKSSNTAYMELRSLTSEDSAIYYCASGGYYFDYWGQGTTLTVSS
VL: DIVMTQSHKFMSTSFGDRVSITCKASQDVGTAVAWYQQKLGQSPKLLISWAFTRHTGVPDRFTGSGSGTDYTLTISSLQAEDLALYYCQQHYDTPFTFGSGTKLEIK
B3: chimeric 2D7 antibody comprising the murine heavy chain and light chain variable regions of 2D7 and a human Fc region (antibody, V domains shown)
VH: B2 VH
VL: B2 VL
B4: anti-B7-H7 antibody 28F5 (antibody, V domains shown)
VH: QVQLKESGPGLVAPSQSLSITCTVSGFSLTGYGVNWVRQPPGKGLEWLGVIWGDGSTDYNSVLKSRLSISKDNSKSQVFLKMNSLQTDDTARYYCAREATEYLYWYFDVWGAGTTVTVSS
VL: DIVLTQSPASLAVSLGQRATISCRASESVEYYGSSLMQWYQQKPGQPPKLLIFAASNVESGVPPRFSGSGSGTDFNLNIHPVDEDDIAMYFCQQGRRVPWTFGGGTKLEIK
B5: anti-B7-H7 antibody 5C9 (antibody, V domains shown)
VH: QVQLQQSGAELAKPGASVKMSCKASGYTFTSFWIHWIKQRPGQGLEWIGYIIPNTDYTEYNQKFKDKATFTADKSSSTAYMQLSSLTSEDSAVFYCARGLRGAYYFDYWGQGTTLTVSS
VL: DIVLTQSPASLAVSLGLRATISCRSSQSVSTSTNGYMHWYQQKPGQPPKLLIMYASNLESGVPARFSGSGSGTDFTLNIHPVDEEDTATYYCQHSWVLPYTFGGGTKLEIK
B6: anti-B7-H7 antibody 2F10 (antibody, V domains shown)
VH: EIQLQQTGPELVKPGASLRISCKASGYSFTDYIIVWVKQNQGKNLDWIEKINPYYGTTTYNLRFEDKATLTVNKSSTTAYMQLNSLTSEDSAVYYCARWDYVSTLFAMDYWGQGTSITVSS
VL: DIVMTQSHKVMSTSVGDRVSIICKASQDVGTAVAWYQQKPGQSPKLLIYWASTRHTGVPDRFTGSGSGTDFILTITNVQSENLANYFCQQYKRYYTFGGGTKLEIK
B7: anti-B7-H7 antibody 1D3 (antibody, V domains shown)
VH: EVQLQQSGPELEKPGASVKISCKASGYSFTGYNMNWVKESNGRSLEWIGNIDPYSGGSTYNQKFKGKATMTVDKSSSTAYMQLKSLTSEDSAVYYCARSVYDAPWLAHWGQGTLVTVSA
VL: DIQMTQSPASLSASVGETVTITCRASENIYIYLAWYQQKQGKSPQLLVYNAKTLAEGVPSRFSGSGSGTQFSLKINRLQPEDFGNYYCQHHYGTPPTFGGGTKLEIK
B8: anti-B7-H7 antibody 5B10 (antibody, V domains shown)
VH: B7 VH with E39Q, R43K, M70L, Y80S, M81L, A92S, V100F, W105Y, A107T, H108Y
VL: DIQMTQSPTSLSASVGETVTITCRASENIFIYLAWYQQKQGKSPQLLVFNAKTLAEGVPSRFSGSGSGTQFSLKINSLRPEDFGTYYCQHHYGTPPTFGGGTKLEV
B9: anti-B7-H7 antibody 16D5 (antibody, V domains shown)
VH: QVQLQQSAAELARPGASVKMSCKASGYTFTTYTMHWVKQRPGQGLEWIGYINPSRGYSDYSQKFQGKSTLTTDKSSNTAYIQLTSLTSEDSAVYFCARGGYDFDYWGQGTTLTVSS
VL: DIVMTQSHKFMSTSVGDRVSITCKASQDVGTAVAWYQQKPGQSPKLLLYWASTRHTGVPDRFTGSGSGTDYTLTISSVQAEDLALYHCQQHFITPYTFGGGTKLEIK
B10: anti-B7-H7 antibody 5F7 (antibody, V domains shown)
VH: QEQLQQPGTELVKPGASVKISCKASGYTFSSYSMHWVKLTPGQGLEWMGTIYPGNENTSYNQKFKGKATLTADKSSSTAYMQLSSLTSEDSAVYYCARGGYYFDYWGQGTTLTVSS
VL: B9 VL with M11L, G30S, L48I, P59S, Y71F, H87Y, I93D, T94I, T97W
B11: anti-B7-H7 antibody 3H6 (antibody, V domains shown)
VH: B2 VH with Y56G, N77S, I93V, S98R
VL: B2 VL with F15V, G30S, L40S, S49Y, F52S, L78V, S100G

Target: T1, cynomolgus monkey B7-H7 (soluble analyte in SPR) (cynomolgus monkey)
Experiment: SPR (Biacore)

Kd	koff	Binder
0.4 nM	7.6e-05 s⁻¹	B1
0.65 nM	0.00011 s⁻¹	B2
0.14 nM	3.5e-05 s⁻¹	B3

Target: T1, cynomolgus monkey B7-H7 (soluble analyte in SPR) (cynomolgus monkey)
Experiment: SPR (Biacore), antibody captured by anti-Fc on CM5 chip, B7-H7 injected, 37 C

Kd	Binder
4.5 nM	B4
4.8 nM	B5
8.6 nM	B6
3.2 nM	B7
4.6 nM	B8
6.9 nM	B9
1.2 nM	B10
0.6 nM	B2
6.9 nM	B11
